What was measured:
hiR2-FL-P532A-T7 = molecular target: T1, hiR2-FL-P532A-T7 (human, UniProt Q6PJF5 1-856); experiment: FACS, MEF-DKO cells, 3 µg/ml
T1 sequence: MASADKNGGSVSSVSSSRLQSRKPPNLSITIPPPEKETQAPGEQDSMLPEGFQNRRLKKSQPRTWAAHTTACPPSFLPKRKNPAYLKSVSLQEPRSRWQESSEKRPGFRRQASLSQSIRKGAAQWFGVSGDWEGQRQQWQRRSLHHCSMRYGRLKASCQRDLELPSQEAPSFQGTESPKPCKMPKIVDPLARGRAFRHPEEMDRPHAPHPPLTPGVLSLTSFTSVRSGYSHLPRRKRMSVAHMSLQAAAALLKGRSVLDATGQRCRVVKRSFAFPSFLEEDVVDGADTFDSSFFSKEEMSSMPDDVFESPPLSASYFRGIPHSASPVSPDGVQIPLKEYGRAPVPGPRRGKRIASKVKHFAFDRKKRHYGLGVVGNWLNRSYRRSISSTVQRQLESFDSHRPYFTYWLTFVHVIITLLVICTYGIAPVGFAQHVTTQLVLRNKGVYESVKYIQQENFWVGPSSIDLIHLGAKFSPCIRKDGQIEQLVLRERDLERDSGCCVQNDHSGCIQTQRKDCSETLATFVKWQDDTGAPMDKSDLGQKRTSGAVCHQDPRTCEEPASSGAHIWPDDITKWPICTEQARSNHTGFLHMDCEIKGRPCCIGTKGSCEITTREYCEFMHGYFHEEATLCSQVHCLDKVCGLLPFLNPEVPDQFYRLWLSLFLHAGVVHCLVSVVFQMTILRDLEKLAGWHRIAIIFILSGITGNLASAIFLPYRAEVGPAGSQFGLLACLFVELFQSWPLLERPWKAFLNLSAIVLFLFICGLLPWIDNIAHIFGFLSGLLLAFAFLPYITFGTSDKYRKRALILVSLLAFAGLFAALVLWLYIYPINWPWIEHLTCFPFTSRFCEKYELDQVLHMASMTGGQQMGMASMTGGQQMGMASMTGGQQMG

[1] = molecular target: T2, human iRhom2, endogenously expressed (human, UniProt Q6PJF5 1-856); experiment: indirect FACS scatchard analysis on THP-1 cells
T2 construct: also called RHBDF2
T2 sequence: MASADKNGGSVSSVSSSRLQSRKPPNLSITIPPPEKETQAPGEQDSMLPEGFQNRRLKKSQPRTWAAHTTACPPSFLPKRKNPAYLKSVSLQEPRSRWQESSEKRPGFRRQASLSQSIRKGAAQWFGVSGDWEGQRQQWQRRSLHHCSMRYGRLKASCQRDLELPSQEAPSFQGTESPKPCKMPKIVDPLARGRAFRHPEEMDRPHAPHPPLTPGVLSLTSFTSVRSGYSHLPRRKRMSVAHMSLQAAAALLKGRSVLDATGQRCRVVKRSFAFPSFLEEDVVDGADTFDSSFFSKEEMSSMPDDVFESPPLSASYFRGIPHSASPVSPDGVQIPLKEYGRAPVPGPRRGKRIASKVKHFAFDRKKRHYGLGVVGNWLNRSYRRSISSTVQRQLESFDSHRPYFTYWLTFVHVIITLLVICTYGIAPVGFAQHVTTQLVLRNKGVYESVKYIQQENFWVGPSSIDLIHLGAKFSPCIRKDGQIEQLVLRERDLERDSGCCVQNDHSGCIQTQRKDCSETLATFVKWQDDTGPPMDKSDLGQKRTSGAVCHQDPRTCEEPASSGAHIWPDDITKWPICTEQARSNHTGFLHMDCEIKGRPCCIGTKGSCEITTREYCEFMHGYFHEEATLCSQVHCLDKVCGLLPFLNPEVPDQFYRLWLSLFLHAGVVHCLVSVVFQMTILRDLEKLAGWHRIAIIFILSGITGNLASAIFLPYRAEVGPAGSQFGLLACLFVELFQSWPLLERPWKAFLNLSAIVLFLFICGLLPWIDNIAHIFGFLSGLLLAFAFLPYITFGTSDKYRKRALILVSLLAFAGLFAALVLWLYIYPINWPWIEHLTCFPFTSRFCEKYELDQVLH
Experimental: In brief, human THP-1 cells (American Type Culture Collection, USA) were harvested with 10 mM EDTA in PBS, washed and resuspended in FACS buffer (PBS, 3% FBS, 0.05% sodium azide), and seeded in Nunc U-bottom 96-well plates (Thermo Fisher Scientific, USA) at approximately 3×10⁵ cells per well. In order to pellet cells and remove supernatants, the plates were centrifuged at 1,500 rpm and 4° C. for 3 minutes. For primary staining, cells were resuspended in 100 μl per well of either FACS buffer alone (controls) or serial two-fold dilutions (in total 22 concentrations) of the purified antibodies 3, 5, 16, 22, 34, 42, 43, 44, 48, and 50 of the invention in FACS buffer starting at 40 μg/ml and incubated on ice for 1 hour. Afterwards, plates were centrifuged at 1,500 rpm and 4° C. for 3 minutes and washed twice with 200 μl per well of FACS buffer. For secondary staining, cells were spun down and resuspended in 100 μl per well of PE-conjugated goat anti-mouse IgG F(ab′)2 detection fragment (Dianova, Germany) diluted 1:100 in FACS buffer. Protected from light, the cell suspensions were incubated on ice for 1 hour. Plates were then centrifuged at 1,500 rpm and 4° C. for 3 minutes and washed three times with 200 μl per well of FACS buffer. Finally, cells were resuspended in 150 μl per well of FACS buffer and analyzed using a BD Accuri™ C6 Plus flow cytometer (Becton Dickinson, Germany). Applying Prism8 software (GraphPad Sowtware, USA), the respective KD value for each of the antibodies of the invention were calculated.

Binder | loss of binding vs wild type (hiR2-FL-P532A-T7) [%] | Kd [1] [nM]
antibody 5 (antibody, V domains shown, mouse IgG, kappa light chain; also called clone #5; purified antibody 5) VH: QVTLKESGPGILQPSQTLSLTCSFSGFSLSTFGMGVGWIRQPSGKGLEWLAHIWWDDEKYYNSALKSRLTISKATSKNQAFLKIANVDTADTATYYCARISNYGSNYWYFNVWGTGTTVTVSS VL: QVVLTQSPALMSASPGEKVTMTCSAGSSVSCMYWYQQKPGSSPRVLIYDTSNLASGVPARFTGSGSGTSYSLTISRMEAEDAASYYCQQWNSYPLTFGAGTKLELK | ≥ 60 | 3.35
antibody 42 (antibody, V domains shown, mouse IgG, kappa light chain; also called clone #42; purified antibody 42) VH: QVTLKESGPGILQPSQTLSLTCSLSGFSLSTFGRGVGWIRQPSGKGLEWLAHIWWDDEKYYNPALKSRLTISKDTSKNQVFLRIANVDTADTATYYCARIQNYGSNYWYFDVWGTGTTVTVSS VL: LIVLTQSPAIMSASPGEKVTMTCGATSRISYMFWYQQKPGSSPRVLIYDTSNLASGVPVRFSGSGSGTSYSLTISRVEAEDVATYYCQQWNSYPLTFGAGTKLELK | ≥ 60 | 1.9
antibody 43 (antibody, V domains shown, mouse IgG, kappa light chain; also called clone #43; purified antibody 43) VH: QVALKESGPGILQPSQTLSLTCSFSGFSLSTFGMGVGWIRQSSGKGLEWLANIWWDDDKYYNPALKSRLTISKDASKNQAFLKIANVDTADTATYYCARIGNYGSNYWYFDVWGTGTTVTVSS VL: QIVLTQSPAIMSASPGERVTMTCSANSRISYMYWYQQKPGSSPRLLIYDTSNLASGVPVRFSGSGSGTSYSLTISRMEAEDAATYNCQQWSSYPLTFGAGTKLELK | ≥ 60 | 4.55
antibody 44 (antibody, V domains shown, mouse IgG, kappa light chain; also called clone #44; purified antibody 44) VH: QVTLKESGPGILQPSQTLSLTCSFSGFSLSTFGMGVGWIRQPSEKGLEWLAHIWWDDDKYYNPALKSRLTISKDTSKNQIFLKITNVDTAETATYYCSRIGNYGSNYWYFDVWGTGTTVTVSS VL: QIVLTQSPAVMSASPGEKVTMTCTASSSVYYMYWYQQTPGSSPRLLIYDTSNLASGVPVRFSGSGSGTSYSLTISRMEAEDAATYYCQQWNTYPLTFGAGTKLELK | ≥ 60 | 0.44
antibody 22 (antibody, V domains shown, mouse IgG, kappa light chain; also called clone #22; purified antibody 22) VH: QVTLKESGPGILQPSQTLSLTCSFSGFSLSTFGMGVGWIRQPSGKGLEWLAHIWWDDEKYYNSALKSRLTISKATSKNQVFLKIANVDTADTATYYCARISNYGSNYWYFNVWGTGTTVTVSS VL: QVVLTQSPALMSASPGEKVTMTCSAGSSVSYMYWYQQKPGSSPRVLIYDTSNLASGVPARFTGSGSGTSYSLTISRMEAEDAATYYCQQWNSYPLTFGAGTKLELK | ≥ 30 | 2.04
antibody 34 (antibody, V domains shown, mouse IgG, kappa light chain; also called clone #34; purified antibody 34) VH: QVTLKESGPGILQPSQTLSLTCSFSGFSLSTFSLGVGWIRQSSGKGLEWLAHIWWDDEKYYNPALKSRLTISKDTSKNQVFLKIANVDAADTATYYCARAYYSKSYYALDYWGQGTSVTVSS VL: DIQMTQSPSSLSASLGERVSLTCRASQEISGYLSWLQQKPDGTIKRLIYAASTLDSGVPKRFSGSRSGSDYSLAISSLESEDFADYYCLQYANFPFTFGSGTKLEIK | – | 1.94
antibody 48 (antibody, V domains shown, mouse IgG, kappa light chain; also called clone #48; purified antibody 48) VH: QVQLQQSGTELVRPGTSVKVSCKASGYAFTNYLIEWVKQRPGQGLEWIGVINPGSGFTKYNEKFKGKATLTADKSSSTVYMHLSSLTSEDSAVYFCARGLYRAMDYWGQGTSVTVSS VL: DIQMTQSPASQSASLGESVTITCLASQTIATWLAWYQQKPGKSPQLLIYGATTLADGVPSRFSGGGSGTKFSFKISSLQAEDFVSYYCQQLYSTPYTFGGGTKLEIK | – | 1.73
antibody 50 (antibody, V domains shown, mouse IgG, kappa light chain; also called clone #50; purified antibody 50) VH: QVQLQQSGAELVRPGASVKVSCKASGYAFSNYLIEWVKQRPGQGLEWIGVINPGSGFTKYNEKFKGKATLTADKSSSTAYMQLSSLTSEDSAVYFCARGLYRAMDYWGQGTSVTVSS VL: DIQMTQSPASQSASLGESVTITCLASQTIGTWLAWYQQKPGKSPQLLIYAAASLADGVPSRFSGGGSGTKFSFKISSLQAEDFVNYYCQQIYSTPYTFGGGTKLEIK | – | 1.43
antibody 16 (antibody, V domains shown, mouse IgG, kappa light chain; also called clone #16; purified antibody 16) VH: QVTLKESGPGILQPSQTLSLTCSFSGFSLSTFALGVGWIRQPSGRGLEWLAHIWWDDDKYYNPALKSRLTISKDTSKNHVFLKIANVDTADTATYYCARITTYYYGMDYWGQGTSVTVSS VL: DIVLSQSPATLSVTPGDSVSLFCRASQSIGNHLHWYQQESHASPRLLIKYASQSISGIPSRFSGSGSGTDFTLSINSVETEDFGMYFCQQSYNWPLTFGAGTKLELK | – | 0.34
antibody 3 (antibody, V domains shown, mouse IgG, kappa light chain; also called clone #3; purified antibody 3) VH: QVTLKESGPGILQPSQTLSLTCSFSGFSLTTFAMGIGWVRQPSGKGLEWLAHIWWDGEKYNNPVLKSRLTISKDTSKNQVFLRIANVDTPDTATYYCARISSIYYIIDNWGQGTSVTVSS VL: DIVLTQSPATLSVTPGHSVSLSCRASQSISNNLHWYQKKSHESPRLLIKYVSQSISGIPSRFSGSGSGTDFTLSINSVETEDFGMYFCQQSYNWPLTFGAGTKLELK | – | 2.97

Reference: US20240287172A1 (SCIRHOM, published 2024)
